Experimental data taken from paper PMC11559061.

T1: Fur (ferric uptake regulator) (Staphylococcus aureus) (UniProt A0A0H2XGT2)
T1 sequence: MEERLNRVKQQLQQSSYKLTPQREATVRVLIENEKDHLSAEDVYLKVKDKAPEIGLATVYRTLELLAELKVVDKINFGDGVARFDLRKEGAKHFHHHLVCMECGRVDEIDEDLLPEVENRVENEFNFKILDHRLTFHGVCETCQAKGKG

T2: purified S. aureus Fur (S. aureus) (UniProt P0A032)
T2 sequence: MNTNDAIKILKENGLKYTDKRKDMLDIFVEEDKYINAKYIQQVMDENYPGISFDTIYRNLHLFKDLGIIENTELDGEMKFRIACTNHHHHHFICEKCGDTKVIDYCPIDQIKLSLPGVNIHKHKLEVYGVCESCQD

B1: purified S. aureus Fpa (natural protein)
chain: MAKQATMKNAALKQLTKDADEILHLIKVQLDNLTLPSCPLYEEVLDTQMFGLQKEVDFAVKLGLVDREDGKQIMLRLEKELSKLHEAFTLV

Tests used:
[1] = target: T1, Fur (ferric uptake regulator) (Staphylococcus aureus); assay: EMSA
[2] = target: T2, purified S. aureus Fur (S. aureus)

| Molecule | binding [1] | EMSA: association of Fur (40 µM) with isdC operator DNA, Fpa titrated in (0-40 µM by the legend, 0-80 µM by the methods), with 100 µM MnCl2 [2] [µM] |
| --- | --- | --- |
| CTTTAGTAAAATCATAAATAATAATGATTATCATTGTCAATATTTATTTTATAATCAATTTATTATTGTTATACGAAAATAGATGTGCTAGTATAATTGATAACCATTATCAATTGCAATGGTTAATC (double strand) [isdC operator (two Fur boxes), 128 bp PCR product] | binds | – |
| B1 | – | 20 |
